# Experimental data: US20220040304A1, “A COMPOSITION FOR CANCER CELL DEATH AND ITS USE” (Industry-University Cooperation Foundation Hanyang …, priority 2018, published 2022)
# B1: RLuc8.6-KR: fusion protein of RLuc8.6 and KillerRed without lead peptide, 69 kDa (protein)
# chain: MRGSHHHHHHGMASMTGGQQMGRDLYDDDDKDPMASKVYDPEQRKRMITGPQWWARCKQMNVLDSFINYYDSEKHAENAVIFLHGNATSSYLWRHVVPHIEPVARCIIPDLIGMGKSGKSGNGSYRLLDHYKYLTAWFELLNLPKKIIFVGHDWGSALAFHYAYEHQDRIKAIVHMESVVDVIESWMGWPDIEEELALIKSEEGEKMVLENNFFVETLLPSKIMRKLEPEEFAAYLEPFKEKGEVRRPTLSWPREIPLVKGGKPDVVQIVRNYNAYLRASDDLPKLFIESDPGFFYNAIVEGAKKFPNTEFVKVKGLHFLQEDAPDEMGKYIKSFVERVLKNEQEFGGGMLCCMRRTKQVEKNDEDQKISEGGPALFQSDMTFKIFIDGEVNGQKFTIVADGSSKFPHGDFNVHAVCETGKLPMSWKPICHLIQYGEPFFARYPDGISHFAQECFPEGLSIDRTVRFENDGTMTSHHTYELDDTCVVSRITVNCDGFQPDGPIMRDQLVDILPNETHMFPHGPNAVRQLAFIGFTTADGGLMMGHFDSKMTFNGSRAIEIPGPHFVTIITKQMRDTSDKRDHVCQREVAYAHSVPRITSAIGSDED
# modifications: pRSET-RLuc8.6-KillerRed
# B2: RLuc8.6-KR-LP: fusion protein of RLuc8.6, KillerRed and lead peptide WLEAAYQRFL, 71 kDa (protein)
# chain: MRGSHHHHHHGMASMTGGQQMGRDLYDDDDKDPMASKVYDPEQRKRMITGPQWWARCKQMNVLDSFINYYDSEKHAENAVIFLHGNATSSYLWRHVVPHIEPVARCIIPDLIGMGKSGKSGNGSYRLLDHYKYLTAWFELLNLPKKIIFVGHDWGSALAFHYAYEHQDRIKAIVHMESVVDVIESWMGWPDIEEELALIKSEEGEKMVLENNFFVETLLPSKIMRKLEPEEFAAYLEPFKEKGEVRRPTLSWPREIPLVKGGKPDVVQIVRNYNAYLRASDDLPKLFIESDPGFFYNAIVEGAKKFPNTEFVKVKGLHFLQEDAPDEMGKYIKSFVERVLKNEQEFGGGMLCCMRRTKQVEKNDEDQKISEGGPALFQSDMTFKIFIDGEVNGQKFTIVADGSSKFPHGDFNVHAVCETGKLPMSWKPICHLIQYGEPFFARYPDGISHFAQECFPEGLSIDRTVRFENDGTMTSHHTYELDDTCVVSRITVNCDGFQPDGPIMRDQLVDILPNETHMFPHGPNAVRQLAFIGFTTADGGLMMGHFDSKMTFNGSRAIEIPGPHFVTIITKQMRDTSDKRDHVCQREVAYAHSVPRITSAIGSDEDGGGWLEAAYQRFL
# modifications: pRSET-RLuc8.6-KillerRed-Lead peptide
# Experiments:
# Format in all cases: cell-based, human
# MCF-7 cells = assay: Flow cytometric analysis of KR, SYTOX Green and DAPI
# Description: MCF-7 cells were seeded at 5×10^5 cells/mL in a 96-well plate (SPL Cell Culture Plate, 96 well (SPL, Cat #30096)), and cultured at 37° C. for 24 hours (overnight). After the culture, the cells were washed with FBS & Phenol red-free media (RPMI), and 100 μL of FBS & Phenol red-free media (RPMI) containing a purified protein (final concentration: 10 μM), followed by reaction at 37° C. for 24 hours (overnight).
# After washing with KillerRed: FBS & Phenol red-free media (RPMI), the cells were detached by treating 100 μL of Trypsin EDTA (Gibco™), and then centrifuged at 1,000 rpm for 3 minutes. The cells were filtered through a cell strainer (SPL, cat #93070) and resuspended in 400 μL of 1×DPBS containing 5% FBS.
# The cells were washed with SYTOX Green: FBS & Phenol red-free media (RPMI), and 100 μL (final concentration: 150 μM) of FBS & Phenol red-free media (RPMI) containing a Co-h substrate solution was added, followed by incubation for 24 hours at 37° C. 50 μL of SYTOX Green (final concentration: 261 nM) staining DNA of dead cells was added without washing the cells, followed by reaction at 37° C. for 30 minutes. Without washing, the cells were detached by treatment with 100 μL of trypsin EDTA (Gibco™), and centrifuged at 1,000 rpm for 3 minutes. The cells were filtered through a cell strainer (SPL, cat #93070) and resuspended in 400 μL of 1×DPBS containing 5% FBS.
# The cells were washed with DAPI: FBS & Phenol red-free media (RPMI), and 100 μL (final concentration: 150 μM) of FBS & Phenol red-free media (RPMI) containing a Co-h substrate solution was added, followed by incubation for 24 hours at 37° C. The cells were washed with FBS & Phenol red-free media (RPMI), and then 100 μL of media (RPMI) was added thereto. 10 μL of DAPI staining DNA of live cells was added, followed by reaction at 37° C. for 30 minutes. The cells were detached by treatment with 100 μL of trypsin EDTA (Gibco™) without washing, followed by centrifugation at 1,000 rpm for 3 minutes. The cells were filtered through a cell strainer (SPL, cat #93070) and resuspended in 400 μL of 1×DPBS containing 5% FBS.
# MCF-7 = assay: Cell death with Co-h substrate by cell type (SYTOX Green or EthD-1/DAPI); details: MCF-7, protein 10 μM, Co-h 150 μM for 5 minutes
# Description: (§1) The cells were seeded at 5×10^5 cells/mL in 96-well plates (SPL Cell Culture Plate, 96 well (SPL, Cat #30096)), and cultured at 37° C. for 24 hours (overnight). After the culture for 24 hours, the cells were washed with FBS & phenol red-free media, and 100 μL of FBS & phenol red-free media containing a purified protein (final concentration: 10 μM) was added, followed by reaction at 37° C. for 24 hours.
# (§2) Subsequently, the cells were washed with FBS & phenol red-free media, and 100 μL of FBS & phenol red-free media was added. 100 μL of FBS & Phenol red-free media (RPMI) containing a Co-h substrate solution (final concentration: 150 μM) was added, followed by reaction at 37° C. for 5 minutes.
# (§3) After the reaction, 50 μL of SYTOX Green (final concentration: 261 nM) or 90 μL of ethidium homodimer (EthD-1) (final concentration 1×), which stains DNA of dead cells, was added, followed by reaction at 37° C. for 30 minutes. 10 μL of DAPI staining DNA of live cells was added, followed by reaction for 5 minutes. Cell death was confirmed by observing KillerRed, SYTOX Green, MiniSOG, EthD-1 and DAPI fluorescence using a confocal microscope.
# MDA-MB-231 = assay: as above; details: MDA-MB-231, protein 10 μM, Co-h 150 μM for 5 minutes
# Description: as §1, §2, §3
# MDA-MB-435 = assay: as above; details: MDA-MB-435, protein 10 μM, Co-h 150 μM for 5 minutes
# Description: as §1, §2, §3
# [1] = MCF-7, protein 10 μM, Co-h 150 μM 24 hours
Molecule,number of cells stained with DAPI (FACS) (MCF-7 cells; [1]),cell death with Co-h substrate (MCF-7),cell death with Co-h substrate (MDA-MB-231),cell death with Co-h substrate (MDA-MB-435),"number of cells exhibiting fluorescence of KillerRed (FACS) (MCF-7 cells; MCF-7, protein 10 μM 24 hours)",number of cells exhibiting SYTOX Green (FACS) (MCF-7 cells; [1])
B1,increases without a cytotoxic effect,none of the six breast cancer cell lines were killed,none of the six breast cancer cell lines were killed,none of the six breast cancer cell lines were killed,–,–
B2,decreased,killed them,killed them,killed them,increased,increased
